Data: publication PMC9352680, “A comprehensive thermodynamic model for RNA binding by the Saccharomyces cerevisiae Pumilio protein PUF4”
Positions count from the first letter of the chain named. Names may count otherwise.

B1: Ic_S4_P5E.1_K5.1_C5.1_H5.1_A5.1_[T5A]_[T6C]_[A7T]_F5.1_[T8G]_[T9C]_[A10T]_T5.1 (ssRNA)
RNA: UUUGACAACUGAUCGUUCUUUCUUGUAACUGCUUUCUUUCUCGAUCAGUUGUCUUU
B2: Ic_S4_P5E.1_K5.1_C5.1_H5.1_A5.1_[T6A]_[A7C]_F5.1_[T8C]_[T9C]_[A10T]_T5.1 (ssRNA)
RNA: B1 RNA with A28U, C29A, U30C, G31C
B3: Ic_S4_P5E.1_K5.1_C5.1_H5.1_A5.1_[A7T]_F5.1_[T8G]_[T9C]_[A10C]_T5.1 (ssRNA)
RNA: B1 RNA with A28U, C29U, U33C
B4: Ic_S4_P5E.1_K5.1_C5.1_H5.1_A5.1_[T5A]_[T6A]_[A7T]_F5.1_[T8A]_[T9A]_[A10C]_T5.1 (ssRNA)
RNA: B1 RNA with C29A, G31A, C32A, U33C
B5: Ic_S4_P5E.1_K5.1_C5.1_H5.1_A5.1_[T6G]_[A7C]_F5.1_[T8A]_T5.1 (ssRNA)
RNA: B1 RNA with A28U, C29G, U30C, G31A, C32U, U33A
B6: Ic_S1_P4E.1_K4.1_C4.1_H4.1_A4.1_[T5C]_F4.1_T4.1 (ssRNA)
RNA: UCUCUUUGUACAUUAUCUCUU
B7: Ib_S1_P4E.1_K4.1_C4.1_H4.1_A4.1_[A6C]_F4.1_[A9C]_T4.1 (ssRNA)
RNA: UCUCUUUGUAUCUUCUCUCUU
B8: Ic_S4_P5E.1_K5.1_C5.1_H5.1_A5.1_[A7T]_F5.1_[T8G]_[T9C]_[A10T]_T5.1 (ssRNA)
RNA: B1 RNA with A28U, C29U
B9: Ic_S4_P5E.1_K5.1_C5.1_H5.1_A5.1_[T5A]_[T6C]_[A7T]_F5.1_[T8C]_[T9A]_[A10T]_T5.1 (ssRNA)
RNA: B1 RNA with G31C, C32A
B10: Ic_S4_P5E.1_K5.1_C5.1_H5.1_A5.1_[T5A]_[T6C]_[A7C]_F5.1_[T9C]_[A10G]_T5.1 (ssRNA)
RNA: B1 RNA with U30C, G31U, U33G
B11: Ic_S4_P5E.1_K5.1_C5.1_H5.1_A5.1_[T5A]_[T6A]_[A7T]_F5.1_[A10T]_T5.1 (ssRNA)
RNA: B1 RNA with C29A, G31U, C32U
B12: Ic_S4_P5E.1_K5.1_C5.1_H5.1_A5.1_[T5A]_F5.1_[T8A]_[A10T]_T5.1 (ssRNA)
RNA: B1 RNA with C29U, U30A, G31A, C32U
B13: Ic_S4_P5E.1_K5.1_C5.1_H5.1_A5.1_[T5C]_[T6A]_[A7C]_F5.1_[T9C]_[A10C]_T5.1 (ssRNA)
RNA: B1 RNA with A28C, C29A, U30C, G31U, U33C
B14: Ic_S4_P5E.1_K5.1_C5.1_H5.1_A5.1_[T5C]_[T6G]_[A7C]_F5.1_[T8G]_[A10C]_T5.1 (ssRNA)
RNA: B1 RNA with A28C, C29G, U30C, C32U, U33C
B15: Ic_S4_P5E.1_K5.1_C5.1_H5.1_A5.1_[T5G]_[T6C]_[A7T]_F5.1_[T8A]_[A10T]_T5.1 (ssRNA)
RNA: B1 RNA with A28G, G31A, C32U
B16: Ic_S4_P5E.1_K5.1_C5.1_H5.1_A5.1_[T5C]_[T6C]_[A7G]_F5.1_[T8G]_[T9C]_[A10C]_T5.1 (ssRNA)
RNA: B1 RNA with A28C, U30G, U33C
B17: Ic_S4_P5E.1_K5.1_C5.1_H5.1_A5.1_[T5C]_[T6C]_[A7C]_F5.1_[T8G]_[T9C]_[A10C]_T5.1 (ssRNA)
RNA: B1 RNA with A28C, U30C, U33C
B18: Ic_S1_P4E.1_K4.1_C4.1_H4.1_A4.1_[A6T]_F4.1_[A9C]_T4.1 (ssRNA)
RNA: UCUCUUUGUAUUUUCUCUCUU
B19: Ic_S4_P5E.1_K5.1_C5.1_H5.1_A5.1_[T5C]_[A7G]_F5.1_[T8C]_[T9G]_[A10C]_T5.1 (ssRNA)
RNA: B1 RNA with A28C, C29U, U30G, G31C, C32G, U33C
B20: Ic_S4_P5E.1_K5.1_C5.1_H5.1_A5.1_[T5C]_[T6C]_[A7C]_F5.1_[T8G]_[T9C]_[A10G]_T5.1 (ssRNA)
RNA: B1 RNA with A28C, U30C, U33G
B21: Ic_S4_P5E.1_K5.1_C5.1_H5.1_A5.1_[T6A]_[A7C]_F5.1_[T8A]_[T9C]_[A10T]_T5.1 (ssRNA)
RNA: B1 RNA with A28U, C29A, U30C, G31A
B22: Ic_S4_P5E.1_K5.1_C5.1_H5.1_A5.1_[T6G]_[A7C]_F5.1_[T8C]_[T9C]_[A10T]_T5.1 (ssRNA)
RNA: B1 RNA with A28U, C29G, U30C, G31C
B23: Ic_S4_P5E.1_K5.1_C5.1_H5.1_A5.1_[T5C]_[T6A]_[A7T]_F5.1_[T8A]_[T9C]_[A10G]_T5.1 (ssRNA)
RNA: B1 RNA with A28C, C29A, G31A, U33G
B24: Ic_S4_P5E.1_K5.1_C5.1_H5.1_A5.1_[T6A]_F5.1_[T9G]_[A10G]_T5.1 (ssRNA)
RNA: B1 RNA with A28U, C29A, U30A, G31U, C32G, U33G
B25: Ic_S4_P5E.1_K5.1_C5.1_H5.1_A5.1_[T5C]_[T6A]_[A7G]_F5.1_[T9C]_[A10C]_T5.1 (ssRNA)
RNA: B1 RNA with A28C, C29A, U30G, G31U, U33C

Molecular target: T1, PUF4 RNA-binding domain (Saccharomyces cerevisiae, UniProt P25339 537-888)
T1 sequence: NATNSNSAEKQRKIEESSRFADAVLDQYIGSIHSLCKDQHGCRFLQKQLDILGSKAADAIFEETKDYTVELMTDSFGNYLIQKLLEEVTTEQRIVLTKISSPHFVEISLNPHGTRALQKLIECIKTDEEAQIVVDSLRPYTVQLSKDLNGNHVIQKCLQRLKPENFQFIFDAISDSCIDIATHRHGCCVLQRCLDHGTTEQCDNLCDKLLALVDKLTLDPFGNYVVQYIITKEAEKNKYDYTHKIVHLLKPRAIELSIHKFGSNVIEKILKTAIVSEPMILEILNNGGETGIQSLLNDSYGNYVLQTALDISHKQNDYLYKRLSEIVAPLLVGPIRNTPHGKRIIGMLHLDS
Test: Mg; RNA-MaP; 20 mM Na-HEPES pH 7.4, 30 mM KOAc, 0.75 mM MgCl2, 0.1% Tween-20, 5% glycerol, 0.1 mg/mL BSA, 2 mM DTT; 25 C; 0.0125-409.6 nM protein
Conditions: tags: N-His6-TEV cleaved; C-SNAP kept, Cy3B-labelled; label: tethered on chip by stalled RNA polymerase

Binder	Kd [nM]
B1	304
B2	36.1
B3	101
B4	26.6
B5	14.1
B6	0.601
B7	92.5
B8	80.4
B9	325
B10	610
B11	16.9
B12	95.2
B13	6.67
B14	> 2300
B15	56.6
B16	> 2300
B17	985
B18	36
B19	1350
B20	1670
B21	75.1
B22	527
B23	14.5
B24	16.6
B25	13.2
